In experiment [1] the test system is Jeko-1 cells. The experiment in a line: Cytotoxicity assay with Vγ9Vδ2-T cell lines, Jeko-1 target cells. It is filed as cell-based, human. The conditions noted are these: 2 hours pretreatment (50 μM pamidronate or 25 μM mevastatin), 1:2; for 1D7-5C8-induced lysis of pretreated Jeko-1 cells: 100 nM 1D7-5C8, 6 hours; for Vγ9Vδ2-T cell-mediated lysis of pretreated Jeko-1 cells: no bispecific antibody, 6 hours. The procedure: Target cells were then cocultured overnight with Vγ9Vδ2-T cell lines in a 1:1 ratio unless otherwise indicated. Viability was measured using Mitotracker Orange (25-minute incubation at 37° C., M7510) and To-pro-3 (10-minute incubation at room temperature; T3605, both Thermo Fisher Scientific).
If indicated, target cells were pretreated with 25 μM mevastatin (M2537, Sigma-Aldrich), 50 μM aminobisphosphonates (pamidronate, #12J08RD, TEVA Pharmachemie, Haarlem, the Netherlands) or medium control for 2 hours.
If indicated, cells were cultured with the indicated concentrations of all-trans retinoic acid (ATRA; R2625, Sigma-Aldrich) for 48 hours unless otherwise indicated. ATRA was washed away prior to cytotoxicity assays.
If indicated, target cells were pre-incubated with 5 μg/mL anti-CD1d mAb (clone 51.1, 350304, Biolegend, San Diego, CA, USA) and/or 10 μg/mL anti-CD277 mAb (clone 103.2, Creative Biolabs, Shirley, NY, USA) for 10 minutes.

The subject of experiment [2] is CLL patient-derived Vγ9Vδ2-T cells. Kind of experiment: Activation, cytokine and degranulation assay with autologous CLL patient-derived Vγ9Vδ2-T cells. It is filed as cell-based, human. The conditions noted are these: overnight culture of CLL PBMC; 1D7-5C8 50 nM. From the text:
(A-C) Activation of and cytokine production and degranulation by patient-derived Vγ9Vδ2-T cells. […] (D) Lysis of primary CLL cells by autologous Vγ9Vδ2-T cells. […] Live CLL cells were quantified by flow cytometry using counting beads (n=5). (E) Expansion of patient-derived Vγ9Vδ2-T cells. […] Percentage Vγ9Vδ2-T cells after 1 week (n=8). Data are presented as mean and SD. *P<0.05, **P<0.01, ***P<0.001. (A-D: one-way ANOVA followed by Dunnett's post hoc test compared to medium control; E: paired t-test).

For experiment [3], the target named is T1, Vδ2 chain (Homo sapiens, UniProt A0JD36).
T1 construct: host or cells: γδ T-cells expressing a Vδ2 chain paired with a non-Vγ9 chain
T1 sequence (A0JD36 with tags, fused parts or gaps): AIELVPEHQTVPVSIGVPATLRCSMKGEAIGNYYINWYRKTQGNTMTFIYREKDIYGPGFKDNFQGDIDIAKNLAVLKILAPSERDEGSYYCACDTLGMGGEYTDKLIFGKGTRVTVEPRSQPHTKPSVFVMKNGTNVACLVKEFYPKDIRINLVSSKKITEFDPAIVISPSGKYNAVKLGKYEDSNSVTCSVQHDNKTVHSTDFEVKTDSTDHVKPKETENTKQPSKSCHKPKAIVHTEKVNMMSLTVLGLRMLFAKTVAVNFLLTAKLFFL
T1 sequence (P07766 23-207 partner): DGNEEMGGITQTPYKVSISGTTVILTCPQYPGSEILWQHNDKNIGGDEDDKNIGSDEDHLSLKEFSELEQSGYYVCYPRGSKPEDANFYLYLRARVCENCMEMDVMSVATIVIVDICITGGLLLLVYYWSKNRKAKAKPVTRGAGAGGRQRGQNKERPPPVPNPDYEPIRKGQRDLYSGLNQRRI
T1 sequence (P09693 23-182 partner): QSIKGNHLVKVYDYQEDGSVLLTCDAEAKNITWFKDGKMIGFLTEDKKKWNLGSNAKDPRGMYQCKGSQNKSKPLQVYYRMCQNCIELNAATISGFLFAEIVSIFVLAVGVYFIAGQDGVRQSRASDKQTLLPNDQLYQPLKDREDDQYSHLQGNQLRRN
T1 sequence (P04234 22-171 partner): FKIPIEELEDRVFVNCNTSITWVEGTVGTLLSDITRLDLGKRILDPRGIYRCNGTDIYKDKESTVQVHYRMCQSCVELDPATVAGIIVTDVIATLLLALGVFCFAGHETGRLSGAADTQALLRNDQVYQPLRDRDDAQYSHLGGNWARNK
T1 sequence (P20963 22-164 partner): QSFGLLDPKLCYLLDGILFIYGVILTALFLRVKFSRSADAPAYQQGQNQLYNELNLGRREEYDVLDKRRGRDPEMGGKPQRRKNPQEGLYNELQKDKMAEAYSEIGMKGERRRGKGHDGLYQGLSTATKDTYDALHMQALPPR
The conditions noted are these: Mean Fluorescence Index class; γδ T-cells expressing Vδ2 chain paired with non Vγ9 chain; cited from earlier work.

In experiment [4] the test system is γδ T-cells not expressing any of the Vγ9Vδ2 TCR chains. The conditions noted are these: Mean Fluorescence Index class; cells not expressing any Vγ9Vδ2 TCR chain; cited from earlier work.
Experiment [5] concerns the target T2, complete Vγ9Vδ2 TCR (Homo sapiens, UniProt A0JD36+Q99603, T7A).
T2 construct: host or cells: γδ T-cells expressing the complete Vγ9Vδ2 TCR
The conditions noted are these: Mean Fluorescence Index class; cited from earlier work.

Experiment [6] has as its target T3, Vγ9 chain (Homo sapiens, UniProt Q99603, T7A).
T3 construct: host or cells: γδ T-cells expressing a Vγ9 chain paired with a non-Vδ2 chain
The conditions noted are these: Mean Fluorescence Index class; γδ T-cells expressing Vγ9 chain paired with non Vδ2 chain; cited from earlier work.

Experiment [7] addresses T4, CD1d (Homo sapiens, UniProt P15813).
T4 construct: expressed in transfected cells; host or cells: MM.1s (human multiple myeloma cell line) stably transduced with CD1d
As to conditions: previously characterized; cited from earlier work.

The target in experiment [8] is T5, sulfatide-loaded CD1d tetramers (Homo sapiens, UniProt P15813).
T5 construct: made in house
T5 sequence (P15813 20-301 limits assumed): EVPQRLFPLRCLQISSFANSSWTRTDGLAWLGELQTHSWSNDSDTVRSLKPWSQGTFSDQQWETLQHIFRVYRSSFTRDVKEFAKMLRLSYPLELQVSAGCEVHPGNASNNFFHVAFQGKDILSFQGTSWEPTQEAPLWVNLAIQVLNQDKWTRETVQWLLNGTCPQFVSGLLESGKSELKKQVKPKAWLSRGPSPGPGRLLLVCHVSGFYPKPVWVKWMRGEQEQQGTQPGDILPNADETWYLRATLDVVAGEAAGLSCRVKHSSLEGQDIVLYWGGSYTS
T5 sequence (P61769 21-119 partner): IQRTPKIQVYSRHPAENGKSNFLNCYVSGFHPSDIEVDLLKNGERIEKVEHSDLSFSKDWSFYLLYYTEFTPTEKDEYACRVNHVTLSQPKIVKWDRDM
Kind of experiment: CD1d-tetramer binding on Jurkat-Vδ1 cells. As to conditions: ratio VHH:CD1d of ~4:1; tetramer 2 μg/ml. The procedure:
(§1) FIG. 2. Vδ1-sulf-CD1d interaction is prevented by anti-CD1d VHH 1D12 and reduced by 1D22. Endogenous or sulfatide loaded CD1d-PE tetramers were incubated with either PBS (control), 1D12 or 1D22 (4:1VHH:CD1d ratio) after which tetramers were used to stain Jurkat-Vδ1 cells (final concentration tetramer 2 μg/ml) in combination with CD3-APC. Tetramer binding is prevented by 1D12 and reduced by 1D22 (A). C1R-CD1d cells were incubated with DMSO controls or sulfatide (25 μg/ml) after which medium or anti-CD1d VHH were added at 1000 or 100 nM and incubated for 30 min. Next Jurkat-Vδ1 cells were added and the co-culture was incubated for an additional 24 h after which CD69 expression was determined by flow cytometry (B). N=3.
To evaluate the effect of 1D12 and 1D22 on CD1d-tetramer binding on Jurkat-Vδ1 cells, endogenous or sulfatide-loaded CD1d-PE tetramers were incubated with either PBS (control), 1D12 or 1D22 (ratio VHH:CD1d of ˜4:1) for 30 min at room temperature after which tetramers were added to Jurkat-Vδ1 cells (final concentration tetramer 2 μg/ml) in combination with CD3-APC and incubated for 45 min at 4 degrees Celsius. Data was analyzed by flow cytometry.

Experiment [9] has as its system iNKT cells. Kind of experiment: Modulation of iNKT cell activation (co-culture with Hela-CD1d cells). It is filed as cell-based, human. As to conditions: 24 hr co-culture with Hela-CD1d pulsed with vehicle or α-GalCer; 1D12 100 nM, 1D22 1000 nM. From the text:
FIG. 1. […] Representative dot-plots illustrating marked activation by 1D12 (A) or inhibition by 1D22 (B) of iNKT cells as depicted by CD25 expression, in addition to a marked increase (by 1D12) or decrease (by 1D22) in iNKT cell IFN-γ production (C and D). Data represent mean+SD of 3-4 individual experiments with iNKT obtained from different donors, **P<0.01, ***P<0.001, calculated with a one-way analysis of variance with Turkey's post hoc test.
To evaluate the capacity of 1D12 and 1D22 to stimulate or inhibit iNKT cell activation, 5×10^4 Hela-CD1d cells were seeded per well in a 96-well tissue culture plate and pulsed overnight with vehicle control (DMSO 0.01%) or 100 ng/ml α-GalCer. Cells were then washed with PBS and incubated with medium, or the anti-CD1d specific VHH for 1 hr at the indicated concentrations. Subsequently, 5×10^4 pure and resting iNKT were added to each well. After 24 hr, culture supernatants were analyzed for (induction or inhibition of) cytokine production by CBA (BD Biosciences) whereas iNKT cells were harvested and analyzed for CD25 expression by flow cytometry.

The test system of experiment [10] is Jurkat-Vδ1 cells. The experiment in a line: Modulation of Jurkat-Vδ1 cell activation (C1R-CD1d co-culture, CD69). It is filed as cell-based, human. The conditions noted are these: C1R-CD1d pulsed with 25 μg/ml sulfatide; VHH 100 nM or 1000 nM; 24 hr. As to the method:
as §1
iNKT cells are known to dock over the extreme F′ pocket of CD1d which contrasts with sulfatide-CD1d restricted Vδ1-T cells that dock more towards the A′ pocket. We therefore evaluated the effect of 1D12 and 1D22 on sulfatide-CD1d restricted Vδ1-T cells. To evaluate the effect of 1D12 and 1D22 on Jurkat-Vδ1 cell activation, 1×10^5 C1R-CD1d cells were seeded per well in a 96-well tissue culture plate and pulsed for 2 hr with vehicle control (DMSO 0.05%) or 25 μg/ml sulfatide. […] After 24 hr Jurkat-Vδ1 cells were harvested and analysed for CD69 expression by flow cytometry. […]

Here are results for eight molecules from patent US12077586B2, “Bispecific antibodies for use in the treatment of hematological malignancies” (LAVA THERAPEUTICS N.V., priority 2018, dated 2024).

T3 sequence (Q99603 with tags, fused parts or gaps T7A limits assumed): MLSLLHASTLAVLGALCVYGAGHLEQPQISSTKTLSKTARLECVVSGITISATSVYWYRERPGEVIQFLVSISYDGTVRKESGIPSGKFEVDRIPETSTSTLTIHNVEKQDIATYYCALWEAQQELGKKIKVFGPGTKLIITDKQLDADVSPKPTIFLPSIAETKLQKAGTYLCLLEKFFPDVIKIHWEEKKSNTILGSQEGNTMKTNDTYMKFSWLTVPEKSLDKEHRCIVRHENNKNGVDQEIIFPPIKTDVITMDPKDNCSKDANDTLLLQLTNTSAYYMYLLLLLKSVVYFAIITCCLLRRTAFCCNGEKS
T3 sequence (P07766 23-207 partner): as the sequence (P07766 23-207 partner) above
T3 sequence (P09693 23-182 partner): as the sequence (P09693 23-182 partner) above
T3 sequence (P04234 22-171 partner): as the sequence (P04234 22-171 partner) above
T3 sequence (P20963 22-164 partner): as the sequence (P20963 22-164 partner) above
T2 sequence (Q99603 with tags, fused parts or gaps T7A limits assumed): as the sequence (Q99603 with tags, fused parts or gaps T7A limits assumed) above
T2 sequence (A0JD36 with tags, fused parts or gaps, stated change not applied): as the sequence (A0JD36 with tags, fused parts or gaps) above
T2 sequence (P07766 23-207 partner): as the sequence (P07766 23-207 partner) above
T2 sequence (P09693 23-182 partner): as the sequence (P09693 23-182 partner) above
T2 sequence (P04234 22-171 partner): as the sequence (P04234 22-171 partner) above
T2 sequence (P20963 22-164 partner): as the sequence (P20963 22-164 partner) above
T4 sequence (P15813 20-335): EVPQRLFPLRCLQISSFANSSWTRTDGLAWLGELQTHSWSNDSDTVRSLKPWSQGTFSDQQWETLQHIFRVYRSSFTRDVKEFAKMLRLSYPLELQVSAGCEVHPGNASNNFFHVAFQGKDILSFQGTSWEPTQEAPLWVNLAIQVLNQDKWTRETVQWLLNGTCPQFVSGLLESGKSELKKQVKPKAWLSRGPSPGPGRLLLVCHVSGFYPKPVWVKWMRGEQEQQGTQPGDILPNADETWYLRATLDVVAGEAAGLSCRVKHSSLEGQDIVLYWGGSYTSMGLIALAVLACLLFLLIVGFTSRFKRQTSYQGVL
T4 sequence (P61769 21-119 partner): as the sequence (P61769 21-119 partner) above

In the case of `CC[C@H](C)C(=O)O[C@H]1CCC=C2C=C[C@H](C)[C@H](CC[C@@H]3C[C@@H](O)CC(=O)O3)[C@H]21` [mevastatin, reference compound], in experiment [1], the “1D7-5C8-induced lysis of pretreated Jeko-1 cells” value was “decreased bispecific antibody 1D7-5C8-induced lysis” and the “Vγ9Vδ2-T cell-mediated lysis of pretreated Jeko-1 cells” value is “led to a reduction in lysis”.

Regarding `NCCC(O)(P(=O)(O)O)P(=O)(O)O` [pamidronate, reference compound], in experiment [2], the “Upregulation of activation marker CD25 on patient Vγ9Vδ2-T cells” value turned out to be 20.5 fold. Besides, in experiment [1], the “1D7-5C8-induced lysis of pretreated Jeko-1 cells” value was “led to an increase in bispecific antibody 1D7-5C8-induced lysis of Jeko-1 cells” and the “Vγ9Vδ2-T cell-mediated lysis of pretreated Jeko-1 cells” value was “more sensitive to Vγ9Vδ2-T cell-mediated cytotoxicity”.

B1: 6C4: Vγ9Vδ2-TCR binding VHH, SEQ ID NO: 156 (protein)
VHH: EVQLVESGGGLVQAGGSLRLSCAVSVRTFSDYRMGWFRQAPGKEREFVSTISWSGGLTYYADSVKGRFTISRDNSKNTLYLQMNSLKPEDTAVYYCAAGGGYAGGTYYHPEEWGQGTQVTVSS
modifications: antibody sequence
With B1, the “Binding, Vδ2+” value in experiment [3] is “+/− (“+/−” indicates an MFI of between 1.5 and 4.5)”. Also, the “Binding, Vγ9Vδ2−” value in experiment [4] is recorded as “− (“−” indicates a Mean Fluorescence Index (MFI) below 1.5)”. For the same molecule, the “Binding, Vγ9Vδ2+” value in [5] is listed as “++ (“++” indicates an MFI above 20)”. For the same molecule, the “Binding, Vγ9+” value in experiment [6] is recorded as “++ (“++” indicates an MFI above 20)”.

B2: 5B11: Vγ9Vδ2-TCR binding VHH, SEQ ID NO: 155 (protein)
VHH: EVQLVESGGGLVQAGGSLRLSCAASGRTSSTFSMAWFRQAPRKEREFVAAINWSGGSTRYADSVSDRFAISRDNAKNTVYLQMNNLKPEDTAVYYCAARRGGIYYSTQNDYDYWGQGTQVTVSS
modifications: antibody sequence
Consider B2, for which the “Binding, Vδ2+” value in experiment [3] is recorded as “− (“−” indicates a Mean Fluorescence Index (MFI) below 1.5)”. Also, the “Binding, Vγ9Vδ2−” value in experiment [4] was “− (“−” indicates a Mean Fluorescence Index (MFI) below 1.5)”. For the same molecule, in [5], the “Binding, Vγ9Vδ2+” value was “+ (“+” indicates an MFI of between 4.6 and 20)”. For the same molecule, the “Binding, Vγ9+” value in experiment [6] is listed as “− (“−” indicates a Mean Fluorescence Index (MFI) below 1.5)”.

B3: 5D7: Vγ9Vδ2-TCR binding VHH, SEQ ID NO: 154 (protein)
VHH: EVQLVESGGGLVQAGGSLRLSCIASGRTFSNYAMGWFRQAPGKEREFVAAISWSGGMTDHADSVKGRFTISRDNAKNTVYLQMNSLKPEDTAVYYCAAAFAGDIPYGSSWYGDPTTYDYWGQGTQVTVSS
modifications: antibody sequence
Take B3: in [3], the “Binding, Vδ2+” value is “++ (“++” indicates an MFI above 20)”. In addition, the “Binding, Vγ9Vδ2−” value in experiment [4] was “− (“−” indicates a Mean Fluorescence Index (MFI) below 1.5)”. Besides, in experiment [5], the “Binding, Vγ9Vδ2+” value is “++ (“++” indicates an MFI above 20)”. In addition, the “Binding, Vγ9+” value in experiment [6] was “− (“−” indicates a Mean Fluorescence Index (MFI) below 1.5)”.

B4: 1D7: CD1d-specific VHH, SEQ ID NO: 70 (protein)
VHH: EVQLVESGGGLVQAGGSLRLSCAASVSSFSSYTMGTIRTGGSTNYADSVKGGIRWDDENPYYADSVKGRFTISRDNAKNTLYLQMNSLKPEDTANYYCAARLVPPGIPFERTLENMRYWGKGTLVTVSS
modifications: antibody sequence
Consider B4, for which the “Affinity for CD1d” value in experiment [7] is “high affinity for CD1d”.

B5: 5E3: Vγ9Vδ2-TCR binding VHH, SEQ ID NO: 139 (protein)
VHH: EVQLVESGGGLVQAGGSLRLSCTASGRTFSSYAMGWFRQAPGKEREFVAAISWSGGTTYYADSVKGRFTISRDNAKNTVSLQMNSLKPEDTAVYFCAASLDCSGPGCHTAEYDYWGQGTQVTVSS
modifications: antibody sequence
With B5, the “Binding, Vδ2+” value in [3] is on record as “− (“−” indicates a Mean Fluorescence Index (MFI) below 1.5)”. In addition, the “Binding, Vγ9Vδ2−” value in experiment [4] is on record as “− (“−” indicates a Mean Fluorescence Index (MFI) below 1.5)”. For the same molecule, in experiment [5], the “Binding, Vγ9Vδ2+” value is recorded as “++ (“++” indicates an MFI above 20)”. The “Binding, Vγ9+” value in experiment [6] is “++ (“++” indicates an MFI above 20)”.

B6: 1D22: anti-CD1d VHH, SEQ ID NO: 84 (protein)
VHH: QVQLVESGGGLVQAGGSLRLSCAASGSIFSINAMGAIRWSGESPYYADSVKGVISSSGSTNYADSVKGRFTISRDNAKNTAYLQMNSLKVEDTAVYYCAAHVAGFDEYNYWGQGTQVTVSS
modifications: antibody sequence
As for B6, the “Binding of sulfatide-loaded CD1d tetramers to Jurkat-Vδ1 cells” value in [8] is given as “only a limited impact”. In experiment [9], the “iNKT cell activation (CD25 expression) and cytokine production” value was “completely blocked iNKT cell activation and cytokine production”. In addition, in experiment [10], the “Jurkat-Vδ1 cell activation (CD69 expression)” value is reported as “only a limited impact on expression of the activation marker CD69”.
